# Results taken from patent US20070004622A1 (REGEN BIOTECH, published 2007).
# B1: YH18 synthetic peptide derived from the fourth fas-1 domain of βig-h3 (D-IV YH18) (peptide)
# peptide: KELANILKYHIGDEILVS
# Biological target: αvβ3 integrin (human, UniProt P06756 31-1048; P05106 27-788)
# Assay: cell-based or functional assay
# Chain of αvβ3 integrin (P06756 31-1048, chain 1 of 2): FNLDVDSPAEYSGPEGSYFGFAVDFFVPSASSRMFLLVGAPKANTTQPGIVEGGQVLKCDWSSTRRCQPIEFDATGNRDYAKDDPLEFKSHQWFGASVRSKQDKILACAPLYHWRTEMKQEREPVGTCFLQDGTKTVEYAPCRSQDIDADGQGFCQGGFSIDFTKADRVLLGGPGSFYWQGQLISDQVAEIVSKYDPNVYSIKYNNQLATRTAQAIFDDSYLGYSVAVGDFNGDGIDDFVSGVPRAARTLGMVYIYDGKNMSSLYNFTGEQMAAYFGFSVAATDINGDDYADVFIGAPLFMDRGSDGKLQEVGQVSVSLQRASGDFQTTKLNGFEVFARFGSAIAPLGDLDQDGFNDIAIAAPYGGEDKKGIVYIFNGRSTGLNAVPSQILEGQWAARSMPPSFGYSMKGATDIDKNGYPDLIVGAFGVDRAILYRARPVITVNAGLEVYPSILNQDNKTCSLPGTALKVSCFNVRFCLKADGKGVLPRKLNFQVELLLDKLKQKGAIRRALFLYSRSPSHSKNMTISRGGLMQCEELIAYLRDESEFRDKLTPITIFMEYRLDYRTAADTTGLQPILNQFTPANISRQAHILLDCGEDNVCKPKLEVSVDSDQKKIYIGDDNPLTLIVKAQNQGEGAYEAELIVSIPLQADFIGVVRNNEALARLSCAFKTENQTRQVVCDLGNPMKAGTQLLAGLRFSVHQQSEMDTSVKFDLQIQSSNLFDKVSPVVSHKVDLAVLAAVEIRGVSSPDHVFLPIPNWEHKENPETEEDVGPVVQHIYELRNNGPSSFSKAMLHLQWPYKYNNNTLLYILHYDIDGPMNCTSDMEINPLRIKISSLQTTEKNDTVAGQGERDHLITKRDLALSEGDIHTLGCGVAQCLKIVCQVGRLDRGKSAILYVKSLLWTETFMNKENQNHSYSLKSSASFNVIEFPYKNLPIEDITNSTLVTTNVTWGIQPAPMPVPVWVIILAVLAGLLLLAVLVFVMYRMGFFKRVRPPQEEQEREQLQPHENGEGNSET
# Chain of αvβ3 integrin (P05106 27-788, chain 2 of 2): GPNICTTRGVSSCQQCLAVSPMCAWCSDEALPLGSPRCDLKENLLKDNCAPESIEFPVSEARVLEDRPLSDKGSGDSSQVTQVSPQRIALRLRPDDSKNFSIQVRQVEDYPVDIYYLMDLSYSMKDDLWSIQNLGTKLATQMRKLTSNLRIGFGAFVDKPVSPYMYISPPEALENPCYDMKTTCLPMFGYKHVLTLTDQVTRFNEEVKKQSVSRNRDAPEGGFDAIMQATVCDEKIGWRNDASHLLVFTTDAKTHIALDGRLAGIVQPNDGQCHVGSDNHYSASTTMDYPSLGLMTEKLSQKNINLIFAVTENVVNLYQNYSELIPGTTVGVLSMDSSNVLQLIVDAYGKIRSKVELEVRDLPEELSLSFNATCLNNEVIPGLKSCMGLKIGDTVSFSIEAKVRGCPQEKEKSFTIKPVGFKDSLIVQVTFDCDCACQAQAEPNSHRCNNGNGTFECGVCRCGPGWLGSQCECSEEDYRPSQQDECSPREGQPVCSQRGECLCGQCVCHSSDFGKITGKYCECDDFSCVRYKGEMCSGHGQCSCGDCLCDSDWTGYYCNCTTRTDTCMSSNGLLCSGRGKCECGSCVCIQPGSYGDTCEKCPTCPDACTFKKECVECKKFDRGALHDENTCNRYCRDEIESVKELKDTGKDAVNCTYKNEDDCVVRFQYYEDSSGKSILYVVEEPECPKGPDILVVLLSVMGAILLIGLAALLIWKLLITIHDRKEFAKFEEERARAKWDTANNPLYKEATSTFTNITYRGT
binder,measurement,value
B1,IC50 of inhibition of HUVEC tube formation on Matrigel,500 µM
